Laboratory results published in paper PMC7608686, “The interaction of DNA repair factors ASCC2 and ASCC3 is affected by somatic cancer mutations” (Nature Communications, 2020).
Ends that are not written are not given here.

T1: ASCC2^1-434 (human, UniProt Q9H1I8 1-434)
T1 chain: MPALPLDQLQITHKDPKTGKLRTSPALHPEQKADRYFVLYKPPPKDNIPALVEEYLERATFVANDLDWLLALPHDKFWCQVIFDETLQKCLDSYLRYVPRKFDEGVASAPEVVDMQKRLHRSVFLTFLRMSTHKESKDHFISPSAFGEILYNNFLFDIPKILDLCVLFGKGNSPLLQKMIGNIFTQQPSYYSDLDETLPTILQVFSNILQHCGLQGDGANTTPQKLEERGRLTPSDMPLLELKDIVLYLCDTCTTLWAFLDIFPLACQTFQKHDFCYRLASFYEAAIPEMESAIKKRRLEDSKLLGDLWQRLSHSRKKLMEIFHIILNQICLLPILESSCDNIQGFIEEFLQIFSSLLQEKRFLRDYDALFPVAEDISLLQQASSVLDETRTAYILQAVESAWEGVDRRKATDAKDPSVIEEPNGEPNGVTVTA

T2: ASCC2^1-434, elastase fragment of ASCC2^FL (human, UniProt Q9H1I8 1-434)
T2 construct: Proteolytic fragment; also called approximately 50 kDa fragment of ASCC2; source: elastase digestion of the purified ASCC2^FL-ASCC3^NTR complex (proteins from insect cells); not shown: His10, N-terminal, cleaved
T2 sequence (looked up): T1 chain

T3: Seleno-methionine (SeMet)-derivatized ASCC2^1-434 (human, UniProt Q9H1I8 1-434, seleno-methionine (SeMet) in place of methionine)
T3 construct: Unmodified complex (co-produced in High Five cells) was crystallized too; the structure was solved by SAD with the SeMet complex; source: E. coli BL21 (DE3), PASM-5052 medium with SeMet, purified (Ni-NTA, SEC); not shown: His6, N-terminal, cleaved
T3 sequence (looked up): T1 chain

T4: ASCC3^1-22 peptide R5L (human, UniProt Q8N3C0 1-22, R5L, C-terminal amination)
T4 construct: ASCC3, human, N-terminal 22 residues with the somatic cancer substitution R5L; source: synthetic peptide (GL biochem)
T4 peptide (looked up): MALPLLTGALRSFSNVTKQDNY

T5: ASCC3^1-22 peptide R5G (human, UniProt Q8N3C0 1-22, R5G, C-terminal amination)
T5 construct: ASCC3, human, N-terminal 22 residues with the somatic cancer substitution R5G; source: synthetic peptide (GL biochem)
T5 peptide (looked up): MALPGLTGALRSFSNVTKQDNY

T6: ASCC3^1-22 peptide R5C (human, UniProt Q8N3C0 1-22, R5C, C-terminal amination)
T6 construct: ASCC3, human, N-terminal 22 residues with the somatic cancer substitution R5C; source: synthetic peptide (GL biochem)
T6 peptide (looked up): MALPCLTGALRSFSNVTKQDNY

T7: ASCC3^1-22 peptide R5H (human, UniProt Q8N3C0 1-22, R5H, C-terminal amination)
T7 construct: ASCC3, human, N-terminal 22 residues with the somatic cancer substitution R5H; source: synthetic peptide (GL biochem)
T7 peptide (looked up): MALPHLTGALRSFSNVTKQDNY

T8: Full-length ASCC2 (ASCC2^FL) (human, UniProt Q9H1I8 1-757)
T8 construct: from a synthetic gene (GeneArt); TEV-cleavable tag; source: insect cells (High Five), recombinant, purified (Ni-NTA, SEC); not shown: His10, N-terminal, cleaved
T8 sequence (looked up): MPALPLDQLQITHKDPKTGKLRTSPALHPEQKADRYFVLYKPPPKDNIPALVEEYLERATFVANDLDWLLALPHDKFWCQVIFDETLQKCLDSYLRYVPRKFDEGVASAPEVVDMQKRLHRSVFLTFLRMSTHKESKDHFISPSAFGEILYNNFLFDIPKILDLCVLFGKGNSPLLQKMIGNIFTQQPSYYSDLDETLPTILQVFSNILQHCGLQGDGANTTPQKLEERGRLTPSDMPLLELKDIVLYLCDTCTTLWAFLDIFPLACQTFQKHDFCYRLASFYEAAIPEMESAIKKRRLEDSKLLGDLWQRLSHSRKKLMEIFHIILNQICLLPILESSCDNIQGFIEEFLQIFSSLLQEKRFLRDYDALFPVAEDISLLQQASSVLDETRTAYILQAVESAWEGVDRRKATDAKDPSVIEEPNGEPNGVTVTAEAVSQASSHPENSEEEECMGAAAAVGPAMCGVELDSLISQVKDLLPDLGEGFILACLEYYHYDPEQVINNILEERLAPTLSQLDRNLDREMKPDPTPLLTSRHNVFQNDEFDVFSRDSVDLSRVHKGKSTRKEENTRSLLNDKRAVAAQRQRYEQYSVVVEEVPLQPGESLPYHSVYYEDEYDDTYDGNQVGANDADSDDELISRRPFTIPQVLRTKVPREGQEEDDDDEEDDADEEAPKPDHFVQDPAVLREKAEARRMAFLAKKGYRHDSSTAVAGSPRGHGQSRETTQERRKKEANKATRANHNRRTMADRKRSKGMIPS

B1: ASCC3^1-22 peptide R5H (peptide)
peptide: MALPHLTGALRSFSNVTKQDNY-NH2
B2: ASCC3^1-161 (domain or fragment, human, UniProt Q8N3C0 1-161, looked up)
chain: MALPRLTGALRSFSNVTKQDNYNEEVADLKIKRSKLHEQVLDLGLTWKKIIKFLNEKLEKSKMQSINEDLKDILHAAKQIVGTDNGREAIESGAAFLFMTFHLKDSVGHKETKAIKQMFGPFPSSSATAACNATNRIISHFSQDDLTALVQMTEKEHGDRV
notes: ASCC3, human, residues 1-161 (lacks the C-arm); source: E. coli BL21 (DE3), purified (Ni-NTA, SEC); not shown: His6, N-terminal, cleaved
B3: ASCC3^1-197 (domain or fragment, human, UniProt Q8N3C0 1-197, looked up)
chain: MALPRLTGALRSFSNVTKQDNYNEEVADLKIKRSKLHEQVLDLGLTWKKIIKFLNEKLEKSKMQSINEDLKDILHAAKQIVGTDNGREAIESGAAFLFMTFHLKDSVGHKETKAIKQMFGPFPSSSATAACNATNRIISHFSQDDLTALVQMTEKEHGDRVFFGKNLAFSFDMHDLDHFDELPINGETQKTISLDYK
notes: source: E. coli BL21 (DE3), purified (Ni-NTA, SEC); not shown: His6, N-terminal, cleaved
B4: ASCC3^1-22 peptide R5G (peptide)
peptide: MALPGLTGALRSFSNVTKQDNY-NH2
B5: ASCC3^1-207, elastase fragment of ASCC3^NTR (domain or fragment, human, UniProt Q8N3C0 1-207, looked up)
chain: MALPRLTGALRSFSNVTKQDNYNEEVADLKIKRSKLHEQVLDLGLTWKKIIKFLNEKLEKSKMQSINEDLKDILHAAKQIVGTDNGREAIESGAAFLFMTFHLKDSVGHKETKAIKQMFGPFPSSSATAACNATNRIISHFSQDDLTALVQMTEKEHGDRVFFGKNLAFSFDMHDLDHFDELPINGETQKTISLDYKKFLNEHLQEA
notes: ASCC3, human, N-terminal 207 residues, mapped by mass spectrometric fingerprinting; Proteolytic fragment; also called N-terminal, 207-residue fragment of ASCC3; source: elastase digestion of the purified ASCC2^FL-ASCC3^NTR complex (proteins from insect cells); not shown: His10, N-terminal, cleaved
B6: ASCC3^1-207 (domain or fragment, human, UniProt Q8N3C0 1-207, looked up)
chain: B5 chain
notes: ASCC3, human, residues 1-207; residues 1-186 traced in the model; source: insect cells, recombinant, purified (Ni-NTA, SEC); not shown: His10, N-terminal, cleaved
B7: ASCC3^16-197 (domain or fragment, human, UniProt Q8N3C0 16-197, looked up)
chain: VTKQDNYNEEVADLKIKRSKLHEQVLDLGLTWKKIIKFLNEKLEKSKMQSINEDLKDILHAAKQIVGTDNGREAIESGAAFLFMTFHLKDSVGHKETKAIKQMFGPFPSSSATAACNATNRIISHFSQDDLTALVQMTEKEHGDRVFFGKNLAFSFDMHDLDHFDELPINGETQKTISLDYK
notes: also called partial N-arm deletion variant; source: E. coli BL21 (DE3), purified (Ni-NTA, SEC); not shown: His6, N-terminal, cleaved
B8: ASCC3^1-22 peptide R5L (peptide)
peptide: MALPLLTGALRSFSNVTKQDNY-NH2
B9: ASCC2^1-434 (domain or fragment, human, UniProt Q9H1I8 1-434, looked up)
chain: T1 chain
notes: as for B3
B10: ASCC3^1-22 peptide R5C (peptide)
peptide: MALPCLTGALRSFSNVTKQDNY-NH2
B11: ASCC3 N-terminal region (ASCC3^NTR; residues 1-400) (domain or fragment, human, UniProt Q8N3C0 1-400, looked up)
chain: MALPRLTGALRSFSNVTKQDNYNEEVADLKIKRSKLHEQVLDLGLTWKKIIKFLNEKLEKSKMQSINEDLKDILHAAKQIVGTDNGREAIESGAAFLFMTFHLKDSVGHKETKAIKQMFGPFPSSSATAACNATNRIISHFSQDDLTALVQMTEKEHGDRVFFGKNLAFSFDMHDLDHFDELPINGETQKTISLDYKKFLNEHLQEACTPELKPVEKTNGSFLWCEVEKYLNSTLKEMTEVPRVEDLCCTLYDMLASIKSGDELQDELFELLGPEGLELIEKLLQNRITIVDRFLNSSNDHRFQALQDNCKKILGENAKPNYGCQVTIQSEQEKQLMKQYRREEKRIARREKKAGEDLEVSEGLMCFDPKELRIQREQALLNARSVPILSRQRDADVEKI
notes: ASCC3, human, N-terminal region, residues 1-400; The results say insect cells; source: insect cells, recombinant, purified (Ni-NTA; SEC step omitted); not shown: His10, N-terminal, cleaved
B12: ASCC3^1-22 peptide, wild type (peptide, UniProt Q8N3C0 1-22, looked up)
peptide: MALPRLTGALRSFSNVTKQDNY-NH2
notes: ASCC3, human, N-terminal 22 residues; also called WT ASCC3^1-22; source: synthetic peptide (GL biochem)

How the values were obtained:
[1] = molecular target: T1, ASCC2^1-434; experiment: ITC
[2] = molecular target: B9; experiment: ITC; iTC200; ASCC3 variant (10 µM) in the sample cell, ASCC2 variant (100 µM) in the syringe; 20 mM HEPES-NaOH, pH 7.5, 100 mM NaCl; 25 °C; stoichiometry fixed to 1; settings: both partners purified
[3] = molecular target: T2, ASCC2^1-434, elastase fragment of …; experiment: SEC; SEC of the fragments left after elastase digestion of the ASCC2^FL-ASCC3^NTR complex; settings: both partners purified
[4] = molecular target: T3, Seleno-methionine (SeMet)-derivatized …; experiment: crystal structure; SeMet SAD, 2.7 Å; complex reconstituted by SEC from SeMet ASCC2^1-434 (E. coli) and ASCC3^1-207 (insect cells); hanging drop, 4 °C, 0.1 M MES-NaOH, pH 6.5; settings: both partners purified
[5] = molecular target: T4, ASCC3^1-22 peptide R5L; experiment: ITC; iTC200; ASCC3^1-22 peptide (10-15 µM) in the sample cell, ASCC2^1-434 (200 µM or 400 µM) in the syringe; 20 mM HEPES-NaOH, pH 7.5, 100 mM NaCl; 25 °C; stoichiometry fixed to 1; settings: both partners purified
[6] = molecular target: T5, ASCC3^1-22 peptide R5G; experiment: as above; settings: both partners purified
[7] = molecular target: T6, ASCC3^1-22 peptide R5C; experiment: as above; settings: both partners purified
[8] = molecular target: T7, ASCC3^1-22 peptide R5H; experiment: as above; settings: both partners purified
[9] = molecular target: T8, Full-length ASCC2 (ASCC2^FL); experiment: ITC; iTC200; ASCC3 variant (10 µM) in the sample cell, ASCC2 variant (100 µM) in the syringe; 20 mM HEPES-NaOH, pH 7.5, 100 mM NaCl; 25 °C; stoichiometry fixed to 1; settings: both partners purified
[10] = molecular target: B9; experiment: ITC; iTC200; ASCC3^1-22 peptide (10-15 µM) in the sample cell, ASCC2^1-434 (200 µM or 400 µM) in the syringe; 20 mM HEPES-NaOH, pH 7.5, 100 mM NaCl; 25 °C; stoichiometry fixed to 1; settings: both partners purified

Binder: B1
- Kd [1]: 43.8 µM

Binder: B2
- Kd [2]: 0.0477 µM

Binder: B3
- Kd [2]: 0.0038 µM

Binder: B4
- Kd [1]: 21.6 µM

Binder: B5
- binding result [3]: binds

Binder: B6
- binding result [4]: binds

Binder: B7
- Kd [2]: 0.483 µM

Binder: B8
- Kd [1]: 15.4 µM

Binder: B9
- fold weaker interaction than with WT ASCC3^1-22 [5]: ~8 fold
- fold weaker interaction than with WT ASCC3^1-22 [6]: ~11 fold
- fold reduced affinity compared to WT ASCC3^1-22 [7]: > 20 fold
- fold reduced affinity compared to WT ASCC3^1-22 [8]: > 20 fold

Binder: B10
- Kd [1]: 46.5 µM

Binder: B11
- Kd [9]: 0.0035 µM

Binder: B12
- Kd [10]: 2 µM
